The values below come from paper PMC5339343, “Evaluation of Rint1 as a modifier of intestinal tumorigenesis and cancer risk” (PLoS ONE, 2017).

Assay [1] has as its target T1, FLAG-tagged full-length human RINT1 I152M; I168T (human, UniProt Q6NUQ1 1-792, I152M | I168T).
T1 construct: The results sentence on UVRAG prints I152T;I168T; the methods made only I152M and I168T together; also called RINT1 n.456A>G; n.503T>C (I152M and I168T); source: HEK293T, transfected, in lysate
Description: co-IP; FLAG-RINT1 plasmids co-transfected with the UVRAG plasmid into HEK293T; lysate in TNE buffer (10 mM Tris acetate, 0.5% NP-40, 2 mM EDTA); anti-FLAG M2 affinity gel overnight, eluted with FLAG peptide; blot for UVRAG, quantified. The settings on record: partners not purified.

Assay [2] has as its target T2, FLAG-tagged full-length human RINT1 I152M (human, UniProt Q6NUQ1 1-792, I152M).
T2 construct: The change copies a variant of the B6 mouse Rint1 allele into human RINT1; The results sentence on UVRAG prints I152T; the methods made only I152M; also called RINT1 n.456A>G (I152M); RINT1 I152M allele; source: HEK293T, transfected, in lysate
The assay is described as above. The settings on record: partners not purified.

T1 sequence (Q6NUQ1 whole entry I152M/I168T): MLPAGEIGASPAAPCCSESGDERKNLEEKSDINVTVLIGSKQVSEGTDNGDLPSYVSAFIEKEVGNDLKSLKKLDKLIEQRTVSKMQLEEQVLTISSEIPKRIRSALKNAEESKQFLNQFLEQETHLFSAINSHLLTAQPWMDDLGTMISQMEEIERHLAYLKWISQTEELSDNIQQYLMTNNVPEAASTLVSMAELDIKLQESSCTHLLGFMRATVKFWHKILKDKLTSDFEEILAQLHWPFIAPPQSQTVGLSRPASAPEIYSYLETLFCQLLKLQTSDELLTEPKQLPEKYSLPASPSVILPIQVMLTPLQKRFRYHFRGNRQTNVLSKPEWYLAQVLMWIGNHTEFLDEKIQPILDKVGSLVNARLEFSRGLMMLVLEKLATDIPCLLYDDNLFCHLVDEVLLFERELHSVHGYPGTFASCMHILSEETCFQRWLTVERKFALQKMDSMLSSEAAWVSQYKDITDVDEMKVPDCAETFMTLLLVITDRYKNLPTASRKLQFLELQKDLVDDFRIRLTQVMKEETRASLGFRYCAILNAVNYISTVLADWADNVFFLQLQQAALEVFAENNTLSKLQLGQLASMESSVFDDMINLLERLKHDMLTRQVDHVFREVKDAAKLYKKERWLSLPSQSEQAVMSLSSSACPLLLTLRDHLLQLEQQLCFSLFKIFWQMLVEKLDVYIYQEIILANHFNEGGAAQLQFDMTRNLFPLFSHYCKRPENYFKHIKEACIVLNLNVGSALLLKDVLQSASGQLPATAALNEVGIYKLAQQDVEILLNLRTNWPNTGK
T2 sequence (Q6NUQ1 whole entry I152M): as the sequence (Q6NUQ1 whole entry I152M/I168T) above, with T168I counted along it

B1: UVRAG expressed from pCl-neo-HA-hUVRAG (natural protein, human, UniProt Q9P2Y5 1-699, looked up)
chain: MSASASVGGPVPQPPPGPAAALPPGSAARALHVELPSQQRRLRHLRNIAARNIVNRNGHQLLDTYFTLHLCSTEKIYKEFYRSEVIKNSLNPTWRSLDFGIMPDRLDTSVSCFVVKIWGGKENIYQLLIEWKVCLDGLKYLGQQIHARNQNEIIFGLNDGYYGAPFEHKGYSNAQKTILLQVDQNCVRNSYDVFSLLRLHRAQCAIKQTQVTVQKIGKEIEEKLRLTSTSNELKKKSECLQLKILVLQNELERQKKALGREVALLHKQQIALQDKGSAFSAEHLKLQLQKESLNELRKECTAKRELFLKTNAQLTIRCRQLLSELSYIYPIDLNEHKDYFVCGVKLPNSEDFQAKDDGSIAVALGYTAHLVSMISFFLQVPLRYPIIHKGSRSTIKDNINDKLTEKEREFPLYPKGGEKLQFDYGVYLLNKNIAQLRYQHGLGTPDLRQTLPNLKNFMEHGLMVRCDRHHTSSAIPVPKRQSSIFGGADVGFSGGIPSPDKGHRKRASSENERLQYKTPPPSYNSALAQPVTTVPSMGETERKITSLSSSLDTSLDFSKENKKKGEDLVGSLNGGHANVHPSQEQGEALSGHRATVNGTLLPSEQAGSASVQLPGEFHPVSEAELCCTVEQAEEIIGLEATGFASGDQLEAFNCIPVDSAVAVECDEQVLGEFEEFSRRIYALNENVSSFRRPRRSSDK
notes: UVRAG, human (hUVRAG), from the plasmid pCl-neo-HA-hUVRAG (Itakura et al. 2008); Detected with an anti-UVRAG antibody; source: HEK293T, transfected, in lysate
On to B1, for which the “fold change of UVRAG co-immunoprecipitation against wild-type RINT1” value in assay [1] and in assay [2] was not below 2 fold in each case.
